B1: IolG (Corynebacterium glutamicum ATCC 13032) (protein)
chain: MSKSLRVGVVGAGAMGADHIDRINNRTSGAHISAIIEPDAARAAAAAEDAPGAQAFTRIEDAIAADAVDAVLIAVPGQFHEPVLVPALEAGLPILCEKPLTPDSESSLRIVELEQKLDKPHIQVGFMRRFDPEYNNLRKLVESGEAGELLMLRGLHRNPSVGESYTQSMLITDSVVHEFDVIPWLAGSRVVSVEVKYPKTSSLAHSGLKEPILVIMELENGVLVDVEMNVNIQFGYQVATEAVFEKGLARIGQPSGMQRWRDGEFLINEHTDFTTRFATAYDRQIQSWVDAVHEGTLVAGPNAWDGYLVALSCEAGVKALDGGVIPVDAAPRPDFYA
notes: full length, C-terminal Strep-tag II, expressed in C. glutamicum MB001(DE3) from pPREx6-IolG; StrepTactin and size exclusion
B2: OxiB (Corynebacterium glutamicum ATCC 13032) (protein)
chain: MTQQELRVAVIGAGMAGKAHAAGYRTASSIYSTTLPNIRLVSIADANVQLAEETAARFGFERFDTSWQAIVEADDIDVVSVVVANFLHREIVEALLASGKHVLCEKPLSDTIEDAEAMIEAAGRAATNGTIARIGLTYRRSPGVAHIRDLVQSGELGKVLHVTGHYWTDYGSNAQAPISWRYKGPNGSGALADVGSHLTYLAEFVAGSDFAAVRGGQLSTVITERPKPLGAIVGHEGGAVSDEYEAVENDDIASFSGSFIGGGTATLQVSRISQGHPNTLGFEVFCEKGSVLFDFRNSGEFKIFTPATSGDISQEAGYRTITIGPKHPYWRGGLAMDAPGVGIGQNEGFVFQARAFLEEIAGISEAESLPRCATLEEGLHNMQLIDAVSQSAAAGGETVAVPAAALIPANN
notes: full length, C-terminal Strep-tag II, expressed in C. glutamicum MB001(DE3) from pPREx6-OxiB; StrepTactin and size exclusion
B3: OxiD (Corynebacterium glutamicum ATCC 13032) (protein)
chain: MTLRIALFGAGRIGHVHAANIAANPDLELVVIADPFIEGAQRLAEANGAEAVASPDEVFARDDIDGIVIGSPTSTHVDLITRAVERGIPALCEKPIDLDIEMVRACKEKIGDGASKVMLGFNRRFDPSFAAINARVANQEIGNLEQLVIISRDPAPAPKDYIAGSGGIFRDMTIHDLDMARFFVPNIVEVTATGANVFSQEIAEFNDYDQVIVTLRGSKGELINIVNSRHCSYGYDQRLEAFGSKGMLAADNIRPTTVRKHNAESTEQADPIFNFFLERYDAAYKAELATFAQGIRDGQGFSPNFEDGVIALELANACLESAQTGRTVTLNPANV
notes: full length, C-terminal Strep-tag II, expressed in C. glutamicum MB001(DE3) from pPREx6-OxiD; StrepTactin and size exclusion
B4: OxiE (Corynebacterium glutamicum ATCC 13032) (protein)
chain: MKNITIGMVGVGRIGRMHVANMLAVAETLKERDLNIEIVLADAMPGFAEQVGADMGVKAAASVDKLIEDGVDALFIATSTAGHVDVLRKGIAAKLPMFCEKPIASDVPESLNIIREIDAAGATVQVGHQRRFDLGYQEAKRRLDAGDLGWLHSLKAVSSDAFPPPVSYCATSGGLFRDVSLHDFDIIRWLTGQDIVEVYAKGSNNGDPEIGAVGDIDTGAALLTLADGTLATAIATRYNGAGHDVRLDVMGSKDSTIVGLDEKSAFASAEEGIDFPTGESHPTFAERFADAYKNECIAFVELILGERENPCTPADAVAAAIVADAAQLSLVTGEPVKIPTVREILEGSAQPVEVRALVPSA
notes: full length, C-terminal Strep-tag II, expressed in C. glutamicum MB001(DE3) from pPREx6-OxiE; StrepTactin and size exclusion

Legend:
Experiment in all cases: purified protein
Type in all cases: biochemical, Corynebacterium glutamicum
Settings in all cases: 5 mM NAD+, pH 7.5, 100 mM potassium phosphate, 1 mM MgSO4, 30 °C, substrate 0.5 to 50 mM
purified protein [1] = substrate: O[C@H]1[C@H](O)[C@H](O)[C@@H](O)[C@H](O)[C@H]1O
purified protein [2] = substrate: O[C@H]1[C@H](O)[C@@H](O)[C@H](O)[C@@H](O)[C@H]1O
purified protein [3] = substrate: O[C@H]1[C@H](O)[C@@H](O)[C@H](O)[C@@H](O)[C@@H]1O

Row | Protein | Km (purified protein [1]) [mM] | kcat (purified protein [1]) [s⁻¹] | kcat/Km (purified protein [1]) [M⁻¹ s⁻¹] | Km (purified protein [2]) [mM] | Vmax (purified protein [2]) [µmol/min/mg] | kcat (purified protein [2]) [s⁻¹] | kcat/Km (purified protein [2]) [M⁻¹ s⁻¹] | Km (purified protein [3]) [mM] | Vmax (purified protein [3]) [µmol/min/mg] | kcat (purified protein [3]) [s⁻¹] | kcat/Km (purified protein [3]) [M⁻¹ s⁻¹] | Vmax (purified protein [1]) [µmol/min/mg]
1 | B1 | 61.93 ± 5.61 | 8.66 ± 0.54 | 140 ± 7.4 | 60.9 ± 13.7 | 23.1 | 14 ± 1.9 | 235 ± 23.4 | – | – | – | – | –
2 | B2 | – | – | – | 62.1 ± 12.5 | 5.8 | 4.2 ± 0.4 | 69.1 ± 7.3 | 28.8 ± 7.1 | 0.05 | 0.03 | 1.03 ± 0.11 | –
3 | B3 | 50.6 ± 8.7 | 15.4 ± 1.7 | 308 ± 20 | 19.6 ± 1.8 | 59 | 35.6 ± 1.4 | 1830 ± 107 | – | – | – | – | 25.5
4 | B4 | 54.1 ± 8.0 | 0.003 | 0.06 | 51.6 ± 3.6 | 3.1 | 3.9 ± 0.3 | 76.7 ± 5.2 | 12.4 ± 0.8 | 13.4 | 8.5 ± 0.1 | 689 ± 41.5 | 0.005

Reference: article PMC9603128, “Physiological, Biochemical, and Structural Bioinformatic Analysis of the Multiple Inositol Dehydrogenases from Corynebacterium glutamicum” (Microbiology Spectrum, 2022)
